From article PMC5629373

B1: STAT5A (S5; hyperactive variant cS5): T92A (protein)
parent chain: MAGWIQAQQLQGDALRQMQVLYGQHFPIEVRHYLAQWIESQPWDAIDLDNPQDRGQATQLLEGLVQELQKKAEHQVGEDGFLLKIKLGHYATQLQNTYDRCPMELVRCIRHILYNEQRLVREANNCSSPAGVLVDAMSQKHLQINQRFEELRLITQDTENELKKLQQTQEYFIIQYQESLRIQAQFAQLGQLNPQERMSRETALQQKQVSLETWLQREAQTLQQYRVELAEKHQKTLQLLRKQQTIILDDELIQWKRRQQLAGNGGPPEGSLDVLQSWCEKLAEIIWQNRQQIRRAEHLCQQLPIPGPVEEMLAEVNATITDIISALVTSTFIIEKQPPQVLKTQTKFAATVRLLVGGKLNVHMNPPQVKATIISEQQAKSLLKNENTRNECSGEILNNCCVMEYHQATGTLSAHFRNMSLKRIKRADRRGAESVTEEKFTVLFESQFSVGSNELVFQVKTLSLPVVVIVHGSQDHNATATVLWDNAFAEPGRVPFAVPDKVLWPQLCEALNMKFKAEVQSNRGLTKENLVFLAQKLFNISSNHLEDYNSMSVSWSQFNRENLPGWNYTFWQWFDGVMEVLKKHHKPHWNDGAILGFVNKQQAHDLLINKPDGTFLLRFSDSEIGGITIAWKFDSPDRNLWNLKPFTTRDFSIRSLADRLGDLNYLIYVFPDRPKDEVFAKYYTPVLAKAVDGYVKPQIKQVVPEFVNASTDAGASATYMDQAPSPVVCPQPHYNMYPPNPDPVLDQDGEFDLDESMDVARHVEELLRRPMDSLDARLSPPAGLFTSARSSLS
B2: STAT5A (S5; hyperactive variant cS5): cS5-T92A (protein)
parent chain: MAGWIQAQQLQGDALRQMQVLYGQHFPIEVRHYLAQWIESQPWDAIDLDNPQDRGQATQLLEGLVQELQKKAEHQVGEDGFLLKIKLGHYATQLQNTYDRCPMELVRCIRHILYNEQRLVREANNCSSPAGVLVDAMSQKHLQINQRFEELRLITQDTENELKKLQQTQEYFIIQYQESLRIQAQFAQLGQLNPQERMSRETALQQKQVSLETWLQREAQTLQQYRVELAEKHQKTLQLLRKQQTIILDDELIQWKRRQQLAGNGGPPEGSLDVLQSWCEKLAEIIWQNRQQIRRAEHLCQQLPIPGPVEEMLAEVNATITDIISALVTSTFIIEKQPPQVLKTQTKFAATVRLLVGGKLNVHMNPPQVKATIISEQQAKSLLKNENTRNECSGEILNNCCVMEYHQATGTLSAHFRNMSLKRIKRADRRGAESVTEEKFTVLFESQFSVGSNELVFQVKTLSLPVVVIVHGSQDHNATATVLWDNAFAEPGRVPFAVPDKVLWPQLCEALNMKFKAEVQSNRGLTKENLVFLAQKLFNISSNHLEDYNSMSVSWSQFNRENLPGWNYTFWQWFDGVMEVLKKHHKPHWNDGAILGFVNKQQAHDLLINKPDGTFLLRFSDSEIGGITIAWKFDSPDRNLWNLKPFTTRDFSIRSLADRLGDLNYLIYVFPDRPKDEVFAKYYTPVLAKAVDGYVKPQIKQVVPEFVNASTDAGASATYMDQAPSPVVCPQPHYNMYPPNPDPVLDQDGEFDLDESMDVARHVEELLRRPMDSLDARLSPPAGLFTSARSSLS
B3: STAT5A (S5; hyperactive variant cS5): S5-T92A (protein)
parent chain: MAGWIQAQQLQGDALRQMQVLYGQHFPIEVRHYLAQWIESQPWDAIDLDNPQDRGQATQLLEGLVQELQKKAEHQVGEDGFLLKIKLGHYATQLQNTYDRCPMELVRCIRHILYNEQRLVREANNCSSPAGVLVDAMSQKHLQINQRFEELRLITQDTENELKKLQQTQEYFIIQYQESLRIQAQFAQLGQLNPQERMSRETALQQKQVSLETWLQREAQTLQQYRVELAEKHQKTLQLLRKQQTIILDDELIQWKRRQQLAGNGGPPEGSLDVLQSWCEKLAEIIWQNRQQIRRAEHLCQQLPIPGPVEEMLAEVNATITDIISALVTSTFIIEKQPPQVLKTQTKFAATVRLLVGGKLNVHMNPPQVKATIISEQQAKSLLKNENTRNECSGEILNNCCVMEYHQATGTLSAHFRNMSLKRIKRADRRGAESVTEEKFTVLFESQFSVGSNELVFQVKTLSLPVVVIVHGSQDHNATATVLWDNAFAEPGRVPFAVPDKVLWPQLCEALNMKFKAEVQSNRGLTKENLVFLAQKLFNISSNHLEDYNSMSVSWSQFNRENLPGWNYTFWQWFDGVMEVLKKHHKPHWNDGAILGFVNKQQAHDLLINKPDGTFLLRFSDSEIGGITIAWKFDSPDRNLWNLKPFTTRDFSIRSLADRLGDLNYLIYVFPDRPKDEVFAKYYTPVLAKAVDGYVKPQIKQVVPEFVNASTDAGASATYMDQAPSPVVCPQPHYNMYPPNPDPVLDQDGEFDLDESMDVARHVEELLRRPMDSLDARLSPPAGLFTSARSSLS

Experiments:
[1] = oligomer EMSA, 293T, loading adapted to STAT5 activity; conditions: glycan lost; control: constructs without T92A
[2] = pYSTAT5 immunoblot time course after IL-3 withdrawal, Ba/F3; conditions: glycan lost; control: cS5
[3] = pYSTAT5 immunoblot, Ba/F3 cells ± IL-3; conditions: glycan lost; control: cS5
[4] = immunoblot, 293T with EpoR, EPO stimulation; conditions: glycan lost; control: matching construct without T92A (S5, cS5)
[5] = total STAT5 immunoblot, Ba/F3; conditions: glycan lost; control: cS5
[6] = phospho-serine immunoblot, Ba/F3; conditions: glycan lost; control: cS5

| Protein | oligomerisation [1] | other: persistence of tyrosine phosphorylation [2] | other: tyrosine phosphorylation (pYSTAT5) [3] | other: tyrosine phosphorylation (pYSTAT5) [4] | expression_or_secretion [5] | other: serine 725/779 phosphorylation [6] |
| --- | --- | --- | --- | --- | --- | --- |
| B1 | no change |  |  |  |  |  |
| B2 |  | decreases | decreases | no change | no change | no change |
| B3 |  |  |  | no change |  |  |
